Test results from patent publication US20020102262A1, “Collagen binding protein compositions and methods of use” (priority 1996, published 2002).
Substitutions are numbered along the chain they refer to. Where “and” joins values, the source holds several entries; their conditions need not be identical. Equal values may be shown once.

B1: 212Q→A (protein)
chain: ITSGNKSTNVTVHKSEAGTSSVFYYKTGDMLPEDTTHVRWFLNINNEKSYVSKDITIKDQIAGGQQLDLSTLNINVTGTHSNYYSGQSAITDFEKAFPGSKITVDNTKNTIDVTIPQGYGSYNSFSINYKTKITNEQQKEFVNNSQAWYQEHGKEEVNGKSFNHTVHN
B2: 191F→A (protein)
chain: B1 chain with F41A, A62Q
B3: 232N→A (protein)
chain: B1 chain with A62Q, N82A
B4: 175Y→K (protein)
chain: B1 chain with Y25K, A62Q
B5: 233Y→A (protein)
chain: B1 chain with A62Q, Y83A
B6: 189R→A (protein)
chain: B1 chain with R39A, A62Q
B7: 221T→K (protein)
chain: B1 chain with A62Q, T71K
B8: 278N→K (protein)
chain: B1 chain with A62Q, N128K
B9: 193N→K (protein)
chain: B1 chain with N43K, A62Q
B10: 225N→K (protein)
chain: B1 chain with A62Q, N75K
B11: 223N→K (protein)
chain: B1 chain with A62Q, N73K
B12: Y^233→A (protein)
chain: ARDISSTNVTDLTVSPSKIEDGGKTTVKMTFDDKNGKIQNGDMIKVAWPTSGTVKIEGYSKTVPLTVKGEQVGQAVITPDGATITFNDKVEKLSDVSGFAEFEVQGRNLTQTNTSDDKVATITSGNKSTNVTVHKSEAGTSSVFYYKTGDMLPEDTTHVRWFLNINNEKSYVSKDITIKDQIQGGQQLDLSTLNINVTGTHSNAYSGQSAITDFEKAFPGSKITVDNTKNTIDVTIPQGYGSYNSFSINYKTKITNEQQKEFVNNSQAWYQEHGKEEVNGKSFNHTVHNINANAGIEGTVKGELKVLKQDKDTKAPIANVKFKLSKKDGSVVKDNQKEIEIITDANGIANIKALPSGDYILKEIEAPRPYTFDKDKEYPFTMKDTDNQGYFTTIENAKAIEKTKDVSAQKVWEGTQKVKPTIYFKLYKQDDNQNTTPVDKAEIKKLEDGTTKVTWSNLPENDKNGKAIKYLVKEVNAQGEDTTPEGYTKKENGLVVTNTE
B13: double mutant (protein)
chain: B12 chain with N203A

What follows are molecules tested against type II Col (collagen type II) (assay: BIAcore, immobilized type II Col; Scatchard analysis or Equation 1). Settings: not given.
Chain of type II Col (collagen type II) (P02459 182-1241): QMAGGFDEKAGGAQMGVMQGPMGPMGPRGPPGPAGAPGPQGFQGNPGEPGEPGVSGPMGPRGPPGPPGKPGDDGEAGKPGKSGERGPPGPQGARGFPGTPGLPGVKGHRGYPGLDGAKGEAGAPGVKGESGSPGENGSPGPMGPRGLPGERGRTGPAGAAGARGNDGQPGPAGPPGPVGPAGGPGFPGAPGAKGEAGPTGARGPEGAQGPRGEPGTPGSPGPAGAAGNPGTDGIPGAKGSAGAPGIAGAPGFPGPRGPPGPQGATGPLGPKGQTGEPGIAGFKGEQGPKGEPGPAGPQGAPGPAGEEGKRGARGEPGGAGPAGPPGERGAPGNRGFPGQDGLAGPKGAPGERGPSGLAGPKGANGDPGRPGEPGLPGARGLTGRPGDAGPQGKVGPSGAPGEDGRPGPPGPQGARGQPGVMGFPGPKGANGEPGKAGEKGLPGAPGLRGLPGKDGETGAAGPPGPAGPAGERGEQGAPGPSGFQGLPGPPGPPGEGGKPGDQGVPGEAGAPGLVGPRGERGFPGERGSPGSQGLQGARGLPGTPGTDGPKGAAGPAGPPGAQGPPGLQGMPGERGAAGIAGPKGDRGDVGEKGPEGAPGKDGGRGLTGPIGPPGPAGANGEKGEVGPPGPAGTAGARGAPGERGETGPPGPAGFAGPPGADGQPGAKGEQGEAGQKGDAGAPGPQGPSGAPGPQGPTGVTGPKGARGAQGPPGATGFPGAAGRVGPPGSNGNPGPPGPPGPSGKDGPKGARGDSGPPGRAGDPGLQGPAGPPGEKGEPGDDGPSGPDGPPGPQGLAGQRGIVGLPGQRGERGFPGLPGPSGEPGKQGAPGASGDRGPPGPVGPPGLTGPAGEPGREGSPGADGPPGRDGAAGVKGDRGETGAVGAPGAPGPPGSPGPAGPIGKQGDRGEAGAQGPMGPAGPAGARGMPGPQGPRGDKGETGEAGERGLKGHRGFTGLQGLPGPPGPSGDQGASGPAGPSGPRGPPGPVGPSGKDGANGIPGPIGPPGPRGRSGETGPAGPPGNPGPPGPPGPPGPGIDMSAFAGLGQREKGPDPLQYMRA
In the case of “CBD (30-529) N^232→A:Y^233→A (from UniProt Q53654 30-529)”, the BRapp (apparent binding ratio) is reported as 2 sites and 3 sites.

Each molecule was assayed against Col type II (Homo sapiens, UniProt P02458) (assay: Biosensor analysis of CBD(151-318) and single-site mutants binding to Col type II). Settings: approximate binding ratio.
Chain of Col type II (P02458 182-1241 limits assumed): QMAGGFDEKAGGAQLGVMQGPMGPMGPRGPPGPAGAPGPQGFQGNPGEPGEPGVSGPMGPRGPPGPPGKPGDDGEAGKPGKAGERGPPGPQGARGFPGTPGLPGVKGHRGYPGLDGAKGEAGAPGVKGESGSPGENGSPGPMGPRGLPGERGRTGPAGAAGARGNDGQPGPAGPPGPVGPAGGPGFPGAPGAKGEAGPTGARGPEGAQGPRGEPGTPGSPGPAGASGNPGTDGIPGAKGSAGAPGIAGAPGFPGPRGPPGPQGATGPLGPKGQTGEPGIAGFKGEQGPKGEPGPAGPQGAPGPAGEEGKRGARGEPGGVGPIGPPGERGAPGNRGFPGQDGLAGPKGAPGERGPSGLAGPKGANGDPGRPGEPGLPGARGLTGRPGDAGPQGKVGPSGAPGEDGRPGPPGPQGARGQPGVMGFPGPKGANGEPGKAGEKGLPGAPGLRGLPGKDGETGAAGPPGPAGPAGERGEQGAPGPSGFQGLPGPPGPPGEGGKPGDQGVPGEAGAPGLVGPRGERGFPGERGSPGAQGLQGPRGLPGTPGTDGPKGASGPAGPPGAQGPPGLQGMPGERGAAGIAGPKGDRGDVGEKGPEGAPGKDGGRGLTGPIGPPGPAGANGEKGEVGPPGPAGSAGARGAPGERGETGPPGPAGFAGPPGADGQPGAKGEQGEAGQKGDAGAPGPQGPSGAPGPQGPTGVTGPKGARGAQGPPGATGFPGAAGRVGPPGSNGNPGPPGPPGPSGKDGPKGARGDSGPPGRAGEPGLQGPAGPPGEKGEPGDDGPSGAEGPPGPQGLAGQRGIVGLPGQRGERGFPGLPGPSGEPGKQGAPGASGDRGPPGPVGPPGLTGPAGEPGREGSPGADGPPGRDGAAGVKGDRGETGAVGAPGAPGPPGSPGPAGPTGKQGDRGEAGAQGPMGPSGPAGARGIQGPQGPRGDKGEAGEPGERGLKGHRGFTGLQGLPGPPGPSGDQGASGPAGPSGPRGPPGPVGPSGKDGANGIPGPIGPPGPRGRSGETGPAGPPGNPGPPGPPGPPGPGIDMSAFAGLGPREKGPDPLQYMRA
From the text: Mutational analysis was used to evaluate the putative binding site defined by the docking search. […] The surface area covered by the docked Col is about 1630 Å^2, which is 22% of the total solvent-accessible surface of CBD(172-318). […] Nine of these residues were mutated as well as two additional residues outside the putative binding region. The single-site lysine and alanine mutations were designed to disrupt the surface of the putative Col binding groove of wild type CBD(15 1-318). […] The MSCRAMM recognizes generic triple-helical structures (Speziale et al., 1986; Sakakibara et al., 1973; Heidemann and Roth, 1982), therefore, changes in the low-affinity dissociation constants were used to evaluate alterations in the binding of the mutant proteins (House-Pompeo et al., 1994).
B1 gave a BR of 10.
With B2 the BR was 10.
B3 gave a BR of 12.
B4 was tested, and the BR was greater than 20.
B5 was tested, and the BR was 11.
With B6 the BR was greater than 13.
B7 showed a BR of 9.
Work on B8 yielded a BR of 9.
In the case of B9, the BR is reported as 12.
B10 gave a BR of 10.
B11 gave a BR of 10.

Same assay, conditions: in words
B1 was tested, and the “Col-binding activity / affinity for Col compared with wild type CBD(151-318)” value was “did not differ significantly from that of wild type CBD(151-318)”.
B3 was tested, and the “Col-binding activity / affinity for Col compared with wild type CBD(151-318)” value was “did not differ significantly from that of wild type CBD(151-318)”.
With B7 the “Col-binding activity / affinity for Col compared with wild type CBD(151-318)” value was “did not differ significantly from that of wild type CBD(151-318)”.
In the case of B10, the “Col-binding activity / affinity for Col compared with wild type CBD(151-318)” value is reported as “did not differ significantly from that of wild type CBD(151-318)”.

The molecules below were run against type II Col (collagen type II) (assay: biosensor analysis, equilibrium response; protein passed over covalently immobilized type II Col). Settings: not given.
“CBD(151-318) 278N→K (from UniProt Q53654 151-318)” was tested, and the BR (approximate binding ratio) was 9.
“CBD(151-318) 232N→A (from UniProt Q53654 151-318)” gave a BR (approximate binding ratio) of 12.
“CBD(151-318) 223N→K (from UniProt Q53654 151-318)” was tested, and the BR (approximate binding ratio) was 10.
With “CBD(151-318) 175Y→K (from UniProt Q53654 151-318)” the BR (approximate binding ratio) was greater than 20.
“CBD(151-318) 225N→K (from UniProt Q53654 151-318)” gave a BR (approximate binding ratio) of 10.
“CBD(151-318) 212Q→A (from UniProt Q53654 151-318)” gave a BR (approximate binding ratio) of 10.
“CBD(151-318) 193N→K (from UniProt Q53654 151-318)” showed a BR (approximate binding ratio) of 12.
“CBD(151-318) 221T→K (from UniProt Q53654 151-318)” gave a BR (approximate binding ratio) of 9.
“CBD(151-318) 189R→A (from UniProt Q53654 151-318)” gave a BR (approximate binding ratio) greater than 13.
“CBD(151-318) 233Y→A (from UniProt Q53654 151-318)” showed a BR (approximate binding ratio) of 11.
Molecule “CBD(151-318), recombinant Col-binding domain of the S. aureus CBP (wild type) (from UniProt Q53654 151-318)” has a BR (approximate binding ratio) of 10.
“CBD(151-318) 191F→A (from UniProt Q53654 151-318)” was tested, and the BR (approximate binding ratio) was 10.

The molecules below were run against type II Col (collagen type II) (assay: BIAcore, immobilized type II Col; three-component dissociation, the two fastest components). Settings: not given.
Work on “CBD (30-529), recombinant S. aureus Col MSCRAMM fragment (wild type) (from UniProt Q53654 30-529)” yielded a koff greater than 0.01 s⁻¹.

What follows are molecules tested against type II Col (collagen type II) (assay: BIAcore, immobilized type II Col; three-component dissociation, the slowest component). Settings: not given.
“CBD (30-529), recombinant S. aureus Col MSCRAMM fragment (wild type) (from UniProt Q53654 30-529)” was tested, and the koff was 0.0005 s⁻¹.

What follows are molecules tested against type II Col (collagen type II) (assay: peptide (5 µM) incubated with ^125I-Col before addition of S. aureus cells). Settings: not given.
With “Peptide CBD4 (from UniProt Q53654 209-233)” the percent inhibition of ^125I-Col binding to S. aureus was greater than 50%.

What follows are molecules tested on S. aureus strain Phillips (assay: Mouse sepsis model, active immunization, intravenous challenge with S. aureus expressing CBP). Settings: 100μg/mouse on days -31, -18, -7; 2.8×10^7 cfu/mouse i.v. day 0; end day 14.
Type: in vivo, mice
From the text: Gram-positive bacteria related sepsis is on the increase. In fact between one-third and one-half of all cases of sepsis are caused by gram-positive bacteria, particularly S. aureus and S. epidermidis. In the United States, it can be estimated that over 200,000 patients will develop gram-positive related sepsis this year. […] Mice were immunized subcutaneously with either M55 or a control antigen (bovine serum albumin) and then challenged intravenously with S. aureus. Eighty-three percent (35/42) of the mice immunized with M55 survived compared to only 27% of the BSA immunized mice (12/45). This is a compilation of 3 separate studies.
Day -31: 100μg/mouse of a CBP Epitope (i.e. M17, M31, or M55) or BSA emulsified with Freund's Complete adjuvant (Difco Laboratories) as a control.
Day -18: 100μg/mouse of a CBP Epitope (ie. M17, M31, or M55) or BSA dissolved in sterile phosphate buffered saline (PBS)
Day -7: 100μg/mouse of a CBP Epitope (i.e. M17, M31, or M55) or BSA dissolved in PBS
Day 0: inoculate intravenously S. aureus strain Phillips (which expresses CBP) (Dose: 2.8×10^7 cfu/mouse)
Day 14: end of study; all surviving mice were euthanized.
With “M17: recombinant S. aureus Col-binding MSCRAMM derivative, amino acids 151-297 of full length CBP (SEQ ID NO:2)” the mice died/total was 10/15.
In the case of “M31: recombinant S. aureus Col-binding MSCRAMM derivative, amino acids 61-343 of full length CBP (SEQ ID NO:4)”, the mice died/total is reported as 12/14.

Same assay, conditions: in words
With “full-length sequence: previously-identified full-length S. aureus CBP [reference compound]” the protection against sepsis was “does not confer protection against sepsis”.

These molecules were tested against immobilized type II Col (Homo sapiens, UniProt P02458) (assay: BIAcore analysis of CBD(30-529) and mutants on immobilized type II Col). Settings: not given.
Chain of immobilized type II Col (P02458 182-1241 limits assumed): as above
Type: binding
From the text: The importance of amino acid residues Asn^232 and Tyr ^33 in the MSCRAMM for Col binding was examined by creating specific mutants of CBD (30-529) and characterizing the interactions of these mutants with immobilized type II Col using the BlAcore. In the mutations made, the identified amino acid residues were replaced individually, (N^232 →A, Y^233 →A) or as a pair, (N^232 →A:Y^233→A) with alanine, a residue that is not expected to interfere with the existing secondary structure. The corresponding base changes were made using overlap extension PCR™ as described and the sequence changes confirmed experimentally. The recombinant proteins containing the mutations were purified to homogeneity by metal ion chelating chromatography.
True equilibrium was not obtained during the injection time period due to the slow dissociation rate (koff). […] The dissociation phase gives information about the koff, and this rate is independent of the number of binding sites, analyte concentration, and flow rate. […] The association phase contains the information to determine the association rate koff the interaction, but it is also influenced by the dissociation rate, the number of binding sites for each interaction, and the concentration of the analyte. Because of the complexity of this interaction and the absence of measurable equilibrium data, it was not possible to determine the binding constant (KD), apparent binding ratio (BRapp), and kon.
For B12, the “affinity and apparent binding ratio compared to wild type” value was “even more significant decreasesin affinity and apparent binding ratio”.
With B13 the “affinity and apparent binding ratio compared to wild type” value was “even more significant decreasesin affinity and apparent binding ratio”.

Same assay, conditions: Scatchard analysis or Equation 1
B13 was tested, and the “apparent binding ratio (BRapp)” value was “approximately two to three high affinity sites”.

Each molecule was assayed against type II Col (collagen type II) (assay: peptide at 10 µM, inhibition of ^125I-labeled Col binding to S. aureus cells). Settings: not given.
“Peptide CBD4 (from UniProt Q53654 209-233)” was tested, and the percent inhibition of ^125I-labeled Col binding to S. aureus was 76%.
